Assay results from paper PMC6166713.
pKd: −log10 of the molar value.

Assays:
Test in all cases: BLI; Octet Red; GST-WASP variants loaded on anti-GST sensors (10 μg/ml), dipped into a dilution range of Cdc42·GMPPNP; 50 mM Tris-HCl pH 7.5, 150 mM NaCl, 1 mM MgCl2, 0.02% Tween 20, 0.1% BSA, 0.05% sodium azide, 25 °C; GST-alone sensors subtracted
[1] = biological target: GST-WASP(201–321) K225A (UniProt P42768)
[2] = biological target: GST-WASP(201–321) K225A/K226A/R227A/K230A/K231A/K232A (UniProt P42768)
[3] = biological target: GST-WASP(201–321) K225A/R227A (UniProt P42768)
[4] = biological target: GST-WASP(201–321) K226A/R227A (UniProt P42768)
[5] = biological target: GST-WASP(201–321) K230A (UniProt P42768)
[6] = biological target: GST-WASP(201–321) K230A/K231A (UniProt P42768)
[7] = biological target: GST-WASP(201–321) K230A/K231A/K232A (UniProt P42768)
[8] = biological target: GST-WASP(201–321) K230A/K232A (UniProt P42768)
[9] = biological target: GST-WASP(201–321) K231A/K232A (UniProt P42768)
[10] = biological target: GST-WASP(201–321) K232A (UniProt P42768)
[11] = biological target: GST-WASP(201–321) R227A (UniProt P42768)
[12] = biological target: GST-WASP(201–321) wild type (UniProt P42768)

pKd [1]: 7.08 | koff [1]: 0.0468 s⁻¹ | kon [1]: 671000 M⁻¹ s⁻¹ | pKd [2]: 6.13 | koff [2]: 0.145 s⁻¹ | kon [2]: 198000 M⁻¹ s⁻¹ | pKd [3]: 7.09 | koff [3]: 0.0371 s⁻¹ | kon [3]: 456000 M⁻¹ s⁻¹ | pKd [4]: 7.13 | koff [4]: 0.0372 s⁻¹ | kon [4]: 497000 M⁻¹ s⁻¹ | pKd [5]: 6.98 | koff [5]: 0.0498 s⁻¹ | kon [5]: 477000 M⁻¹ s⁻¹ | pKd [6]: 6.79 | koff [6]: 0.0684 s⁻¹ | kon [6]: 422000 M⁻¹ s⁻¹ | pKd [7]: 6.51 | koff [7]: 0.0914 s⁻¹ | kon [7]: 300000 M⁻¹ s⁻¹ | pKd [8]: 6.85 | koff [8]: 0.067 s⁻¹ | kon [8]: 484000 M⁻¹ s⁻¹ | pKd [9]: 6.75 | koff [9]: 0.0639 s⁻¹ | kon [9]: 368000 M⁻¹ s⁻¹ | pKd [10]: 6.87 | koff [10]: 0.0546 s⁻¹ | kon [10]: 407000 M⁻¹ s⁻¹ | pKd [11]: 7.31 | koff [11]: 0.0281 s⁻¹ | kon [11]: 630000 M⁻¹ s⁻¹ | pKd [12]: 7.20 | koff [12]: 0.0417 s⁻¹ | kon [12]: 691000 M⁻¹ s⁻¹
Substance: Cdc42 Δ7 Q61L (from UniProt P60953 1-191) (natural protein)
